Measured values taken from paper doi:10.1101/2021.08.28.458030.

Target: T1, Human fumarase (human), P07954
T1 chain: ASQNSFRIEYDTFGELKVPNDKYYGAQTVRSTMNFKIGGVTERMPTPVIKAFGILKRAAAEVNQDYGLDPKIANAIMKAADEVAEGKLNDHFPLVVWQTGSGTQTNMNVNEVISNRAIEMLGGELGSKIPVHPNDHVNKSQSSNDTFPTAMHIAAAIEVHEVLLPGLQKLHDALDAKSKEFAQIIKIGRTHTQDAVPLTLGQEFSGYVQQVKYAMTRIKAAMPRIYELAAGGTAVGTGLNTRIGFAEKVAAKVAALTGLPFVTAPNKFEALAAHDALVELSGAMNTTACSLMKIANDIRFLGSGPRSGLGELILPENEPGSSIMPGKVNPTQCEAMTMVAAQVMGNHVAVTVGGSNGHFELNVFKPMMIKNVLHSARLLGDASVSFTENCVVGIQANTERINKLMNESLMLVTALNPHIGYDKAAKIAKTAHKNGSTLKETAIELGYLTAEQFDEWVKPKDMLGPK
Assay: crystal structure
Settings: remark: other sources report otherwise

stoichiometry N: 4
B1: Human fumarase, P07954 45-510 (enzyme)
chain: T1 chain
